Patent US20200270321A1 (Hoffmann-La Roche, published 2020)
Each block holds one binder with its values, some of them ahead of it.

Assays:
cyCD19 ECD = molecular target: T1, cyCD19 ECD (cynomolgus); assay: binding to CD19 ECD; method not stated
T1 construct: extracellular domain; also called cynomolgus CD19 ectodomain

[1] = molecular target: T2, monomeric human CD19 Fc (kih) fusion protein (human, UniProt P0DOX5 223-449 = IgG part); assay: SPR (ProteOn XPR36), Fab from bacterial supernatant captured by anti-human Fab, monomeric CD19-Fc as analyte
T2 construct: also called monomeric CD19-Fc
Method: In order to further characterize the ELISA-positive clones, the off-rate was measured by surface plasmon resonance and compared with the parental humanized clone 8B8.
For this experiment, 7000 RU of polyclonal anti-human Fab antibody were immobilized on all 6 channels of a GLM chip by Amine coupling (NaAcetate pH4.5, 25 μl/min, 240 s) (vertical orientation). Each antibody-containing bacterial supernatant was filtered and 2-fold diluted with PBS, and then injected for 360s at 25 μl/minute to achieve immobilization levels of between 100 and 400 response units (RU) in vertical orientation. […] Regeneration was performed by two pulses of 10 mM glycine pH 1.5 and 50 mM NaOH for 30 s at 90 ul/min (horizontal orientation). Dissociation rate constants (koff) were calculated using a simple one-to-one Langmuir binding model in ProteOn Manager v3.1 software by simultaneously fitting the sensorgrams.

huCD19 ECD = molecular target: T3, huCD19 ECD (human, UniProt P15391 20-291); assay: binding to CD19 ECD; method not stated
T3 construct: also called human CD19 ectodomain
T3 sequence: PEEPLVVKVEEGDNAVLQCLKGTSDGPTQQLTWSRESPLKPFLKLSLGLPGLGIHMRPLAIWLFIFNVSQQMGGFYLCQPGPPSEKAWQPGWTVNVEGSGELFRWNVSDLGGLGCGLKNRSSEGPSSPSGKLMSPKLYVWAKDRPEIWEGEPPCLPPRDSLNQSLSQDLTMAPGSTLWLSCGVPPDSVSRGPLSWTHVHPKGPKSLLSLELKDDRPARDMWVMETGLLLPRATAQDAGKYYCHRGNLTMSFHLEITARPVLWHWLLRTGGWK

[2] = molecular target: T4, human 4-1BB (CD137) on cells (human, UniProt Q07011 24-255); assay: flow cytometry on activated human T cells, gate CD4+; PE anti-human IgG Fc-gamma F(ab')2; MFI baseline corrected
T4 construct: whole, on cells; also called 4-1BB+ human T cells
T4 sequence (Q07011 24-255): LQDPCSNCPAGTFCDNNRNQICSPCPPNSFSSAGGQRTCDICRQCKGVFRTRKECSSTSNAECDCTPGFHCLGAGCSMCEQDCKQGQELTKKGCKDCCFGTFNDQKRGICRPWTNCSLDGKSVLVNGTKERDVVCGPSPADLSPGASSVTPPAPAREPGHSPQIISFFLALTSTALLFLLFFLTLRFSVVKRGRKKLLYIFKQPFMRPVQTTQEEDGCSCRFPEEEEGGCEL

[3] = molecular target: T5, human fibroblast activation protein (huFAP) on cells (human, UniProt Q12884 1-760); assay: flow cytometry on WM-266-4 cells; PE anti-human IgG Fc-gamma F(ab')2; MFI
T5 construct: Transfected in NIH/3T3-huFAP clone 39; also called NIH/3T3-huFAP clone 39; WM266-4

[4] = molecular target: T5, human fibroblast activation protein …; assay: flow cytometry on MV-3 cells; PE anti-human IgG Fc-gamma F(ab')2; MFI

- EC50 (cyCD19 ECD): 0.313 µg/mL
B1: wild-type humanized anti-human CD19 antibody 8B8 (antibody, V domains shown)
VH: QVQLVQSGAEVKKPGASVKVSCKASGYTFTDYIMHWVRQAPGQGLEWMGYINPYNDGSKYTEKFNGRVTMTSDTSISTAYMELSRLRSDDTAVYYCARGTYYYGSALFDYWGQGTTVTVSS
VL: DIVMTQTPLSLSVTPGQPASISCKSSQSLENSNGNTYLNWYLQKPGQSPQLLIYRVSKRFSGVPDRFSGSGSGTDFTLKISRVEAEDVGVYYCLQLTHVPYTFGQGTKLEIK
notes: also called wt 8B8

- koff [1]: 4.37e-06 s⁻¹
B2: affinity-matured 8B8-derived clone 2B11, Fab in bacterial supernatant (Fab, V domains shown)
VH: QVQLVQSGAEVKKPGASVKVSCKASGYTFTDYIMHWVRQAPGQGLEWMGYINPYNDGSKYTEKFQGRVTMTSDTSISTAYMELSRLRSDDTAVYYCARGTYYYGPQLFDYWGQGTTVTVSS
VL: DIVMTQTPLSLSVTPGQPASISCKSSQSLETSTGTTYLNWYLQKPGQSPQLLIYRVSKRFSGVPDRFSGSGSGTDFTLKISRVEAEDVGVYYCLQLLEDPYTFGQGTKLEIK
notes: tested as a soluble Fab from bacterial supernatant; also called 8B8-2B11; CD19 (8B8-2B11)

- EC50 (huCD19 ECD): 0.084 µg/mL
- EC50 (cyCD19 ECD): 0.255 µg/mL
B3: humanized anti-human CD19 antibody clone 8B8-018 (antibody, V domains shown)
VH: QVQLVQSGAEVKKPGASVKVSCKASGYTFTDYIMHWVRQAPGQGLEWMGYINPYNDGSKYTEKFQGRVTMTSDTSISTAYMELSRLRSDDTAVYYCARGTYYYGSALFDYWGQGTTVTVSS
VL: DIVMTQTPLSLSVTPGQPASISCKSSQSLENPNGNTYLNWYLQKPGQSPQLLIYRVSKRFSGVPDRFSGSGSGTDFTLKISRVEAEDVGVYYCLQLTHVPYTFGQGTKLEIK
notes: also called CD19 (8B8-018)

- binding result [2]: no binding (tested: about 300 nM)
- EC50 (read off the curve) [3]: ~1 nM
- EC50 (read off the curve) [4]: ~1 nM
B4: bivalent binding FAP (28H1)-targeted huIgG1 P329G LALA (antibody, V domains shown)
VH: EVQLLESGGGLVQPGGSLRLSCAASGFTFSSHAMSWVRQAPGKGLEWVSAIWASGEQYYADSVKGRFTISRDNSKNTLYLQMNSLRAEDTAVYYCAKGWLGNFDYWGQGTLVTVSS
VL: EIVLTQSPGTLSLSPGERATLSCRASQSVSRSYLAWYQQKPGQAPRLLIIGASTRATGIPDRFSGSGSGTDFTLTISRLEPEDFAVYYCQQGQVIPPTFGQGTKVEIK
notes: the rest is said to be human IgG1 P329G LALA; also called FAP(28H1)-targeted hu IgG1 P329G LALA control molecule
